Experimental data reported in article doi:10.1101/2023.02.01.526621 (bioRxiv, 2023).

Biological target: T1, GST-CESA3CD (catalytic domain of cellulose synthase CESA3 fused to GST) (Arabidopsis thaliana, UniProt Q941L0 305-843)
T1 sequence (looked up): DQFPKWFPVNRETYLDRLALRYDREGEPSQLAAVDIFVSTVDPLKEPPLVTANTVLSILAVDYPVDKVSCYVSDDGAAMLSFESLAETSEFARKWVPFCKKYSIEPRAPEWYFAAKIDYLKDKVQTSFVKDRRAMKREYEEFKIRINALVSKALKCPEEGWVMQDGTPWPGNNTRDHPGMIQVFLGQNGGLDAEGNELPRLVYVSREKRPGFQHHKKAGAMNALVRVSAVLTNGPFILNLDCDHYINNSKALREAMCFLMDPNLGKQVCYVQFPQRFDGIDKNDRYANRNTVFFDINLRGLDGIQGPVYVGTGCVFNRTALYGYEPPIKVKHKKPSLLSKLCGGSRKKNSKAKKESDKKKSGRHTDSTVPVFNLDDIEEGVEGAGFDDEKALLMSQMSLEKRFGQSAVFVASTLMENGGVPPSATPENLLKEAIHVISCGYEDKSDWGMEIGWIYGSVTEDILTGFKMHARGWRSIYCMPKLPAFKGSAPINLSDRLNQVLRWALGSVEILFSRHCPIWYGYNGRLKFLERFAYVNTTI
Experiment: pull-down

binding result: binds
B1: His-tagged full-length CALCIUM-DEPENDENT PROTEIN KINASE32 (His-CPK32) (enzyme, Arabidopsis thaliana, UniProt Q6NLQ6 1-538, looked up)
chain: MGNCCGTAGSLAQNDNKPKKGRKKQNPFSIDYGLHHGGGDGGGRPLKLIVLNDPTGREIESKYTLGRELGRGEFGVTYLCTDKETDDVFACKSILKKKLRTAVDIEDVRREVEIMRHMPEHPNVVTLKETYEDEHAVHLVMELCEGGELFDRIVARGHYTERAAAAVTKTIMEVVQVCHKHGVMHRDLKPENFLFGNKKETAPLKAIDFGLSVFFKPGERFNEIVGSPYYMAPEVLKRNYGPEVDIWSAGVILYILLCGVPPFWAETEQGVAQAIIRSVLDFRRDPWPKVSENAKDLIRKMLDPDQKRRLTAQQVLDHPWLQNAKTAPNVSLGETVRARLKQFTVMNKLKKRALRVIAEHLSDEEASGIREGFQIMDTSQRGKINIDELKIGLQKLGHAIPQDDLQILMDAGDIDRDGYLDCDEFIAISVHLRKMGNDEHLKKAFAFFDQNNNGYIEIEELREALSDELGTSEEVVDAIIRDVDTDKDGRISYEEFVTMMKTGTDWRKASRQYSRERFNSISLKLMQDASLQVNGDTR
